Assay [1] concerns the target T1, GABARAP protein (recombinant) (UniProt O95166 1-117). The assay is described as follows: NMR; GABARAP residue I32.
The target in assay [2] is -L1 protein (recombinant) (UniProt Q9H0R8 1-117). Description: ITC. On the technique in general: ITC needs no label: the signal is the heat of the interaction.
Assay [3] addresses LC3A protein (recombinant) (UniProt Q9H492 1-121). The assay is described as follows: ITC.
The target in assay [4] is T2, LC3B protein (recombinant) (UniProt Q9GZQ8 1-120). The assay is described as follows: NMR.
The target in assay [5] is T2, LC3B protein (recombinant). The assay is described as follows: ITC.
Assay [6] deals with T1, GABARAP protein (recombinant). Description: ITC.

Non-standard residues stand in square brackets, D forms with d. No end group written: not given here. pS = N[C@@H](COP(=O)(O)O)C(=O)O A value given as a limit tells only on which side of the number the result lay.

T1 sequence (O95166 whole entry): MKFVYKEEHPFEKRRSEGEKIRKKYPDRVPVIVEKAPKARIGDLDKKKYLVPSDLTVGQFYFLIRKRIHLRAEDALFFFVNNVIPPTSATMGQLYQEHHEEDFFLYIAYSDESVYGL
Sequence of -L1 protein (recombinant) (Q9H0R8 whole entry): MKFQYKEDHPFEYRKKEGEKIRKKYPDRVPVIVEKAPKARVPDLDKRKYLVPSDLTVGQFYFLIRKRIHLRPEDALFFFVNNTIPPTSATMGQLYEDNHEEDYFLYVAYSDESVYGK

As to EALN[pS]GVEYYWDQLNET [AMBRA1-LIR peptide, S1014 phosphorylated (P1)], the Kd in assay [1] is 7 µM; in assay [2], 25 µM; in assay [3] it was about 50 µM; in assay [4], 46 µM.
As to EALNSGVEYYWDQLNET [AMBRA1-LIR peptide, unphosphorylated (P0)], the Kd in assay [1] was 61 µM; in assay [2] it was over 50 µM; in assay [4], 193 µM.
Turning to EALNDGVEYYWDQLNET [AMBRA1-LIR peptide, D-phosphomimicked (PM)], the figures for the Kd in assay [5] and in assay [6] were about 50 µM and 31 µM, respectively.

A word on the Kd: it is the free concentration of one partner at which half of the binding sites on the other are occupied at equilibrium, for simple one-to-one binding.

For the origin of these results see publication PMC6138665 (2018).
